From US20040002450A1, “Y17 - isolated molecules comprising epitopes containing sulfated moieties, antibodies to such epitopes, and uses thereof” (priority 2000, published 2004)

Tests used:
[1] = target: T1, GPIb (glycocalicin) derived from platelets (Homo sapiens, UniProt P07359); experiment: ELISA to GC (glycocalicin), monomer versus dimer; type: binding
T1 construct: glycocalicin (soluble, extracellular fragment of GPIbα); from tissue; host or cells: human platelets
Experimental: An ELISA assay was performed to ascertain the differences in binding between the monomer (the Y1 scFv-also known as Y1-kak) and the dimer Y1-cys-kak (the cysteine dimer) for antigen GPIb (glycocalicin) derived from platelets. A polyclonal anti single chain antibody and/or a novel polyclonal anti-VL (derived from rabbits) and anti-rabbit HRP, were used to detect the binding to GPIb. […] For instance, to reach 0.8 OD units 12.8 μg/ml of monomer was used compared to only 0.1 μg/ml of dimer.
100 ml of purified glycocalicin was incubated in a 96 flat well maxisorp plates, overnight at 4 degrees celsius. The plate was washed with PBST (PBS+0.05% tween) 3 times, then […] of PBST-milk (PBST+2% Non fat milk), for 1 hr at room temperature. The plate was washed with PBST, and the monomer or dimer (100 ml) was added in PBST-milk at different concentrations for 1 hr at room temp. Then the plate was washed and anti-VL polyclonal (derived from immunized rabbits with VL derived from Y1) (1:100 diluted in PBST-milk) was added for an hour. The plate was washed and anti-rabbit HRP was added for an additional hour. The plate was washed 5 times and 100 μl TMB substrate was added for approximately 15 minutes then 100 μl of 0.5H2SO4 was added to stop the reaction. The optical density of the plate was measured at 450 nm in an ELISA reader.

platelet GPIbα [2] = target: T2, platelet GPIbα (Homo sapiens, UniProt P07359); experiment: Western blot/FACS of endoprotease-cleaved platelet GPIbα and glycocalicin; type: binding
T2 construct: endogenous in cells; host or cells: washed human platelets (blood-bank platelet concentrate)
Description: (§1) Immunoblotting and endoprotease cleavage techniques were used to identify the epitope for Y1 on the surface membrane of platelets.
(§2) The enzyme O-Sialoglycoprotein endoprotease from Pasteurella haemolytica (Cedarlan CLE 100) selectively cleaves human platelet GPIb and specifically cleaves only proteins containing sialylated, O-linked glycans. […] This enzyme has been reported to cleave GPIb, which is heavily O-glycosylated, but not GPIIb-IIIa or other receptors on platelets. GPIbα was digested with O-Sialoglycoprotein endoprotease in order to further establish the binding of Y1 to the molecule.
(§3) Mocarhagin [Sigma L4515a] is a cobra venom metalloproteinase that cleaves platelet GPIbα specifically at a single site between residues glu-282 and asp-283, thereby generating two stable products: a ˜45-kDa N-terminal fragment (His1-Glu282), which is released into the supernatant, and a membrane-bound ˜95 kDa C-terminal fragment.
(§4) Cathepsin G (Sigma C4428), a neutrophil serine protease, cleaves glycocalicin at a first cleavage site between residues Leu-275 and Tyr-276 and at a second cleavage site between residues Val-296 and Lys-297. Cathepsin G treatment of glycocalicin generates two N-terminal fragments: a small N-terminal 42 kDa fragment (His1-Leu275), a large N-terminal 45 kDa N-terminal fragment (His1-Val-296), and corresponding ˜95 kDa C-terminal fragments. (FIG. 1).
(§5) For mocarhagin digestion, 10^8 washed platelets in TS buffer (0.01 M Tris, 0.15 M sodium chloride, pH 7.4) containing 1 mM calcium chloride were treated with 12 μg/ml mocarhagin (final concentration) for 1 hour at 22° C. and digestion was stopped by adding EDTA to 0.01 M.
(§6) 10^6 platelets in 0.1 M Tris buffer pH 7.4 containing 0.2% albumin and protease inhibitors (10 μM leupeptin, 0.24 mM PMSF) was incubated with 0.14 mg/ml O-Sialoglycoprotein endoprotease (final concentration) for 45 min at 37° C. and digestion was stopped by adding sample buffer and boiling. The sample buffer used contained 3% SDS, 12% glycerol, 50 mM Tris HCl, 2% β-mercaptoethanol, and 0.03% bromphenol blue.
(§7) For mocarhagin digestion, glycocalicin in TS buffer containing 1 mM calcium chloride was incubated with 10 μg/ml mocarhagin (final concentration) for 1 hour at 22° C. and digestion was stopped by adding EDTA to 0.01 M.
(§8) For cathepsin G digestion, glycocalicin in TS buffer containing 1 mM calcium chloride was incubated with 3.4 μg/ml cathepsin G (final concentration) for 4 hour at 22° C. and digestion was stopped by adding PMSF to 1 mM.

platelet GPIbα [3] = experiment: as above; type: binding, human; settings: immunoblots and FACS
Description: as §1, §2, §3, §4, §5, §6, §7, §8

[4] = system: platelet-rich-plasma (PRP); experiment: Ristocetin-induced aggregation of platelet-rich-plasma after scFv preincubation; type: cell-based, human
Experimental: The effect of Y1 (scFv) on aggregation of platelet-rich-plasma (PRP) was tested at various concentrations of Y1. PRP was pre-incubated with Y1 scFv, Y17 scFv, or a control sTM-1cFv for 4 min at 37° C. before being exposed to ristocetin, an inducer of platelet agglutination and aggregation. A reversible inhibitory effect was observed when scFv was added to PRP prior to the addition of ristocetin, and it was dose dependent.
Blood was collected into a tube containing 3.8% sodium citrate. Platelet-rich plasma was prepared by centrifugation at 250×g for 10 minutes.
(§9) For platelet aggregation studies, platelet rich plasma (PRP) and washed platelets were stirred at 500 rpm at 37° C. in whole blood Lumiaggregometer (Chronolog, Havertown, Pa.). The difference in light transmission through the platelet suspension and suspending medium was taken as 100% aggregation. The effect of Y1 on platelet aggregation was evaluated by addition of different concentration of Y1 before the addition of agonist, and the effect was recorded for four minutes.

washed platelets = experiment: Ristocetin-induced agglutination of washed platelets after scFv preincubation; type: cell-based, human
Experimental: Aggregation is determined in PRP due to the presence of thrombotic agents, while agglutination is determined in washed platelets. The effect of Y1 (scFv) on agglutination of washed platelets was tested at various concentrations of Y1. Platelets were pre-incubated with Y1 scFv, Y17 scFv, Y16-scFv, or a control TM-1 scFv for 4 min at 37° C. before being exposed to ristocetin, an inducer of platelet agglutination and aggregation.
Platelet concentrate in acid-citrate-dextrose (ACD) was obtained from a blood bank, platelets were isolated, washed once in buffer containing ACD and saline in a ratio of 1:7. The platelets were centrifuged at 800 g for 10 min after each wash and were resuspended in Tyrodes solution (2 mM MgCl2, 137 mM NaCl, 2.68 mM KCl, 3 mM NaH2PO4, 0.1% glucose, 5 mM Hepes and 0.35% albumin, pH 7.35) and count the number of cells.
as §9
The effect of Y17-scFv on vWF-dependent agglutination of platelets was tested at different concentrations of Y17.

Row | Molecule | activity relative to the monomer [1] | concentration used to reach 0.8 OD units [1] | binding to cathepsin G fragments of glycocalicin (platelet GPIbα [2]; Western blot) | binding after mocarhagin treatment of washed platelets (platelet GPIbα [2]; Western blot of platelet lysates) | binding to washed platelets after O-Sialoglycoprotein endoprotease (platelet GPIbα [3]) | effect on ristocetin-induced platelet aggregation in PRP (in words) ([4]; concentration not given) | % inhibition ([4]; scFv 38 μg/ml, PRP, ristocetin) | % aggregation ([4]; scFv 38 μg/ml, PRP, ristocetin = 100%) | effect on vWF-dependent platelet agglutination in washed platelets induced by ristocetin (in words) (washed platelets; final concentration of 10, 25 or 50 μg/ml) | % inhibition (washed platelets; scFv 25 μg/ml, washed platelets, ristocetin) | % agglutination (washed platelets; scFv 25 μg/ml, washed platelets, ristocetin = 100%)
1 | Y1-cys-kak: Y1 scFv with cysteine and lysine-alanine-lysine at the carboxyl end, forms a dimer; SEQ ID NO: 212 (protein) scFv: MEVQLVESGGGVVRPGGSLRLSCAASGFTFDDYGMSWVRQAPGKGLEWVSGINWNGGSTGYADSVKGRFTISRDNAKNSLYLQMNSLRAEDTAVYYCARMRAPVIWGQGTLVTVSRGGGGSGGGGSGGGGSSELTQDPAVSVALGQTVRITCQGDSLRSYYASWYQQKPGQAPVLVIYGKNNRPSGIPDRFSGSSSGNTASLTITGAQAEDEADYYCNSRDSSGNHVVFGGGTKLTVLGGGGCKAK | approximately 100 fold | 0.1 µg/mL | – | – | – | – | – | – | – | – | –
2 | Y17 scFv: second human scFv clone selected on platelets; SEQ ID NO: 203, heavy chain CDR3 SEQ ID NO: 20 (protein, listed as Homo sapiens) scFv: MKYLLPTAAAGLLLLAAQPAMAEVQLVESGGGVVRPGGSLRLSCAASGFTFDDYGMSWVRQAPGKGLEWVSGINWNGGSTGYADSVKGRFTISRDNAKNSLYLQMNSLRAEDTAVYYCARLTHPYFWGQGTLVTVSRGGGGSGGGGSGGGGSSELTQDPAVSVALGQTVRITCQGDSLRSYYASWYQQKPGQAPVLVIYGKNNRPSGIPDRFSGSSSGNTASLTITGAQAEDEADYYCNSRDSSGNHVVFGGGTKLTVLGAAAEQKLISEEDLNGAA | – | – | bound to the larger fragment (His1-Val-296), but not to the smaller fragment (His1-Leu275) | binding of Y17 to the N-terminal 45 kDa tryptic fragment | abolishes binding | did not inhibit | 0% | 100% | did not inhibit | 15% | 85%
